Key:
Type in all cases: in vivo
[1] = system: C57Bl/6N mice; assay: Test for daily administration to mouse (peripheral platelet count); settings: for platelet count: day 5
Protocol: Nine-week old male C57Bl/6N mice as purchased from Japan Charles River Co., Ltd. were used in the experiment.
Drug solutions to be administered were prepared basically by the same procedure as in Example 1 to give drug concentrations of […].
The mice under test were divided into four groups, which were administered subcutaneously with the three drug solutions and a control (citrate buffer) once a day in a volume of 10 mL/kg. […] The administration was initiated at 10 a.m.
(Blood Sampling and Counting Peripheral Corpuscles) On days 5, 7 and 9 after the start of administration, five or six mice were picked up at random from each group of animals and blood samples were withdrawn through the orbital vein. The sampling of blood was timed to occur 24 h of the final administration. Separate blood samples were taken from untreated mice (five in number) to obtain the value for normal mouse. Peripheral corpuscle counts were obtained with an automatic corpuscle counter F-800 (TOA MEDICAL ELECTRONICS CO., LTD.)

[2] = system: Japanese albino rabbits JW/CSK; assay: Test for daily administration to rabbit (platelet count); settings: 200 μg/kg subcutaneously daily
Protocol: Six 12-15 week old male Japanese albino rabbits JW/CSK were used in the experiment. The animals were individually kept in aluminum rabbit bracket cages Rb-1 (350^w×500^d×350^h mm) in a vavarium in a specific pathogen-free environment under the following conditions: temperature, 24±2° C.; humidity, 50±10%; illumination, light turned on at 5:00 and turned off at 19:00; ventilation, 15 changes/hr. Each animal was supplied with 120 g of a radiation-sterilized feed for rabbits RM (purchased from Funahashi Farm) per day. The animals were also allowed to drink to tap water ad libitum from an automatic water feeder.
Human PTH(1-84) was administered in a volume of 2 mL/vial at a concentration of 200 μg/mL. A solvent was also supplied in a volume of 2 mL/vial. Both the drug and the control were stored at −135° C. until use.
PTH (200 μg/kg) was administered to the rabbits subcutaneously at the back of their neck for 13 consecutive days. The solvent was similarly administered in the same volume as the dose of a rh-PTH solution calculated from their body weight.
Blood samples (0.5 mL) were withdrawn from the rabbits through the lateral auricular vein before the administration and on days 2, 6, 9 and 13 during the administration period. […]

[3] = system: C57Bl/6N mice; assay: Test for single-dose administration to mouse (peripheral platelet count); settings: single dose 10 μg/kg through the tail vein
Protocol: Nine-week old male C57Bl/6N mice as purchased from Japan Charles River Co. Ltd. were used in the experiment. (Preparation of Drug Solutions to be Administered) Human PTH(1-84) was dissolved in a citrate buffer (pH-5; containing 0.05% of Tween 80) at final concentrations of 1, 0.2 and 0.04 μg/mL so as to prepare the drug solutions to be administered.
Each of the thus prepared drug solutions and a control (citrate buffer) was administered to 15 mice through the tail vein in a volume of 10 mL/kg. […] The administration was initiated at 10 a.m.
After 3, 6 and 9 hours of the administration, five mice were picked up at random from each group of animals and blood samples were withdrawn through the orbital vein. At 10 a.m. on the same day, separate blood samples were taken from untreated mice (four in number) to obtain the pre-administration value. Peripheral corpuscle counts were obtained with an automatic corpuscle counter F-800 (TOA MEDICAL ELECTRONICS CO., LTD.)

[4] = system: C57Bl/6N mice; assay: Effectiveness of PTH derivative, daily administration to mouse (peripheral platelet count); settings: 200 μg/kg subcutaneously once a day for six days, blood 24 h after final administration
Protocol: Ten-week old male C57Bl/6N mice as purchased from Japan Charles River Co., Ltd. were used in the experiment.
Drug solutions to be administered were prepared basically from human PTH(1-84) and human PTH(1-34) by the same procedure as in Example 1 to give a drug concentration of 20 μg/mL.
Eighteen mice were divided into three groups, which were administered subcutaneously with the two drug solutions and a control (citrate buffer) for six days on a once-a-day basis in a volume of 10 mL/kg. […] The administration was initiated at 10 a.m.
After 24 h of the final administration, a blood sample was withdrawn from each mouse through the orbital vein. Peripheral corpuscle counts were obtained with an automatic corpuscle counter F-800 (TOA MEDICAL ELECTRONICS CO., LTD)

B1: human PTH(1-84) (protein, UniProt P01270 32-115, looked up)
Parathyroid hormone: SVSEIQLMHNLGKHLNSMERVEWLRKKLQDVHNFVALGAPLAPRDAGSQRPRKKEDNVLVESHEKSLGEADKADVNVLTKAKSQ
modifications: Parathyroid hormone
In the case of B1, the platelet count ([1]; 200 μg/kg subcutaneously once a day) is reported as “tendency to increase”, the platelet count ([1]; 800 μg/kg subcutaneously once a day) is reported as “tendency to increase” and the “platelet count versus the control” value ([1]; all treated groups (50, 200, 800 μg/kg subcutaneously once a day), day 7) is reported as “significantly higher”. For the same molecule, the “platelet count relative to the initial level” value ([2]; day 13) was “substantially returned to the initial level”, the “platelet count relative to the initial value” ([2]; increase from day 2 until day 6) was “two to four” and the “platelet counts over the control” value ([3]; 6 h after the administration) was “significant increase”. The “platelet counts over the control” value ([3]; 9 h after the administration) was “significant increase” and the platelet increasing action [4] was “platelet increasing action”.
